The subject of one assay is SPHK1/2. The experiment in a line: T cell transmigration with SPHK1/2 inhibitor. Type of assay: cell-based, human. Conditions: 5 μM on endothelial cells, 30 min 37°C, washed, n=3.
In assay [1] the test system is S1P receptor on T cells; stimulated endothelial cells. The experiment in a line: T cell transmigration with exogenous S1P, B cell depleted PBL. The format is cell-based, human.
Assay [2] deals with S1PR1 on memory T cells (CD3+CD45RO+). The experiment in a line: S1PR1 surface expression on memory T cells on ICAM-1. Type of assay: cell-based, human.
For another assay, the system named is αLβ2 (LFA-1). The experiment in a line: LFA-1 activation epitope. Type of assay: cell-based, human. The following applies: S1P 10 µM after CXCL10 80 ng/ml, n=4.
Another assay concerns SPHK1. As to the kind of experiment: T cell transmigration with SPHK1 specific inhibitor. The following applies: 5 μM on endothelial cells, 30 min 37°C, washed, n=3. Type of assay: cell-based, human.
The next assay deals with S1P receptor. The experiment in a line: T cell transmigration with S1P receptor antagonist. The format is cell-based, human. The following applies: W146 10 μM, 30 min, washed; n=3–7.
Assay [3] has as its system TNF-α&IFN-γ treated HUVEC. As to the kind of experiment: PBL trans-endothelial migration, static, HUVEC. Type of assay: cell-based, human.
A further assay relates to B cells. The following applies: T1D and rheumatoid arthritis; cited from earlier work.
Another assay concerns HDMEC. The experiment in a line: PBL transmigration across HDMEC, static. The format is cell-based, human. The following applies: TNF-α&IFN-γ stimulated HDMEC, n=3–4.
Assay [4] relates to TNF-α&IFN-γ stimulated endothelial cells. The experiment in a line: PBL adhesion. Type of assay: cell-based, human. The following applies: adiponectin or PEPITEM.
The subject of assay [5] is α4β1, αLβ2, CXCR3, DP-2 on PBL. As to the kind of experiment: Expression/function of integrins, CXCR3 and DP-2 on PBL, flow cytometry. The format is cell-based, human. Conditions: adiponectin 15 μg/ml, n=3. For orientation: In flow cytometry, cells or beads pass a laser one at a time.
The subject of assay [6] is TNF-α&IFN-γ stimulated HUVEC. The experiment in a line: Gene expression of adhesion molecules and chemokines in HUVEC, real-time PCR. Type of assay: cell-based, human. Conditions: TNF-α and IFN-γ stimulated endothelial cells. Background: In qPCR the cycle at which signal appears reflects the starting amount.
Assay [7] relates to endothelial cells (TNF-α and IFN-γ stimulated). The format is cell-based, human.
Assay [8] deals with lymphocytes from individuals with rheumatoid arthritis; endothelial cells. The experiment in a line: Ex vivo T cell transmigration, individuals with rheumatoid arthritis. The following applies: adiponectin 15 μg/ml or PEPITEM 10 ng/ml, n=7–8. The format is cell-based, human.
Assay [9] has as its system TNF-α&IFN-γ treated HUVEC. As to the kind of experiment: PBL trans-endothelial migration under flow. The following applies: adiponectin pre-treated PBL, n=6.
In assay [10] the test system is lymphocytes from individuals with T1D; endothelial cells. The experiment in a line: Ex vivo T cell transmigration, individuals with type-1-diabetes. Conditions: adiponectin 15 μg/ml or PEPITEM 10 ng/ml, n=9–22.
Another assay has as its target T1, recombinant CDH15-Fc (UniProt P55291 61-606).
T1 sequence (looked up): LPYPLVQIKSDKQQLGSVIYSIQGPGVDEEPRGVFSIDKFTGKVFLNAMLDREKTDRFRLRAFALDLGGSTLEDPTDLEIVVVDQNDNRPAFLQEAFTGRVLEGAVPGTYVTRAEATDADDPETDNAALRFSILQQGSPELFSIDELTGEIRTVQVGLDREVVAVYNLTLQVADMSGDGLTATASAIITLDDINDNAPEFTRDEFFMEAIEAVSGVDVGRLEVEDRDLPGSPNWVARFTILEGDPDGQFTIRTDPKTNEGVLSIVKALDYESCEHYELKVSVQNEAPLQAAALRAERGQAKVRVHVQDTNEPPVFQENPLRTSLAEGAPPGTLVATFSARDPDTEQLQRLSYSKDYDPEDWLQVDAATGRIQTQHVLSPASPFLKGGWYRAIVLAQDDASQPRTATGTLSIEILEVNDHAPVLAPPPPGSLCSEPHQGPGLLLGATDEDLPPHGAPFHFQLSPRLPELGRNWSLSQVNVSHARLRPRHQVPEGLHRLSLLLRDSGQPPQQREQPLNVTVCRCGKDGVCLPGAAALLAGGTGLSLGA
The experiment in a line: SPR.

Where no end group is shown, it is not given here. The star is where a group is joined. Biotin = O=C1N[C@H]2[C@H](CS[C@H]2CCCCC(=O)*)N1

Turning to `CCCCCCCCCCCCC/C=C/[C@@H](O)[C@H](CO)N(C)C` [N,N-Dimethylsphingosine], the “ability of PEPITEM to inhibit T cell migration, SPHK1/2 inhibitor” value with SPHK1/2 is “abolished the ability of PEPITEM to inhibit T cell migration”.
In the case of `CCCCCCCCCCCCC/C=C/[C@@H](O)[C@@H](N)COP(=O)(O)O` [S1P, Sphingosine-1-phosphate], the “T cell migration on adding exogenous S1P” value in assay [1] (S1P 0.0001 to 100 μM, 30 min, purified T cells / B cell depleted PBL, n=3–6) was “mimicked dose-dependently”. The “T cell transmigration at total circulating S1P concentration” value in [1] (S1P ≈0.2 μM) was “inhibited T cell transmigration efficiently”. Moreover, the “surface S1PR1 in the presence of exogenous S1P” value in [2] (CXCL10 80 ng/ml + S1P 10 μM, n=4) was “high expression was maintained”. Moreover, the “affinity of LFA-1, binding to ICAM-1” value in the assay on αLβ2 (LFA-1) was “down-regulates the affinity”.
Regarding `CCCCCCCCCCCCCC#CC(=O)[C@@H]1COC(C)(C)N1C(=O)OC(C)(C)C` [SPHK1 inhibitor, 2,2-dimethyl-4S-(1-oxo-2-hexadecyn-1-yl)-1,1-dimethylester-3-oxazolidinecarboxylic acid], in the assay on SPHK1, the “ability of PEPITEM to inhibit T cell migration, SPHK1 inhibitor” value is “abolished the ability of PEPITEM to inhibit T cell migration”.
On to `CCCCCCc1cccc(NC(=O)[C@H](N)CCP(=O)(O)O)c1` [W146], for which, in the assay with S1P receptor, the “T cell migration in the presence of adiponectin and PEPITEM with S1P receptor antagonist” value was “released T cells from the inhibitory effects of both adiponectin and PEPITEM”.
On to CXCL10: chemokine, for which the “surface S1PR1 on memory T cells on ICAM-1” value in assay [2] (CXCL10 80 ng/ml, n=6) is “rapid up-regulation of surface S1PR1”.
As for “PEPITEM with a biotin conjugate on the N-terminus: PEPITEM with a biotin conjugate on the N-terminus (Biotin-SVTEQGAELSNEER)”, in [3], the “efficacy in functional migration assay” value is reported as “full efficacy”.
On to “rituximab: monoclonal antibody, B cell depletion”, for which the “clinical effect of B cell depletion” value in the assay on B cells was “beneficial effects”.

B1: adiponectin: circulating adipokine (protein, UniProt Q15848 19-244, looked up)
Adiponectin: ETTTQGPGVLLPLPKGACTGWMAGIPGHPGHNGAPGRDGRDGTPGEKGEKGDPGLIGPKGDIGETGVPGAEGPRGFPGIQGRKGEPGEGAYVYRSAFSVGLETYVTIPNMPIRFTKIFYNQQNHYDGSTGKFHCNIPGLYYFAYHITVYMKDVKVSLFKKDKAMLFTYDQYQENNVDQASGSVLLHLEVGDQVWLQVYGEGERNGLYADNDNDSTFTGFLLYHDTN
Take B1: the PBL trans-endothelial migration entry in assay [3] (TNF-α and IFN-γ stimulated HUVEC, static) is “dose-dependently inhibited”. The “EC50 for inhibition of PBL trans-endothelial migration (mass concentration)” value in [3] (adiponectin, PBL pre-treated 1 h and washed, TNF-α and IFN-γ stimulated, static) turned out to be 0.94 µg/mL. Also, the “PBL transmigration on HDMEC” value in the assay on HDMEC is “evident”. The “firm adhesion of PBL (surface adherent cells)” value in [4] is on record as “more cells were firmly adherent to the apical surface of the endothelium”. Further, the “expression and/or function of integrins (α4β1, αLβ2), CXCR3, DP-2 on PBL” value in assay [5] is “did not alter”. Moreover, in assay [6], the “gene expression of adhesion molecules and chemokines” value is recorded as “did not modulate”. For the same molecule, the “T cell migration with supernatants from adiponectin stimulated B cells” value in assay [7] (B cells 100,000, adiponectin 15 μg/ml 1 h) was “as effective as addition of B cells themselves”. Besides, in assay [7] (adiponectin treated, n=3–7), the “T cell migration after depleting B cells from PBL” value is “T cells were released from the inhibitory effects of adiponectin”. In [7] (adiponectin, n=3–7), the “T cell migration after adding back purified B cells” value is reported as “could reconstitute the adiponectin-dependent inhibition of T cell migration”. The “T cell migration, individuals with rheumatoid arthritis” value in [8] is listed as “no longer an inhibition of T cell migration”. Moreover, the “PBL transmigration under flow” value in assay [9] is “effects of adiponectin on PBL migration were seen”. For the same molecule, in [10], the “T cell migration, individuals with T1D” value is reported as “no longer an inhibition of T cell migration”.

B2: N-terminus biotinylated PEPITEM (PEPtide Inhibitor of Trans-Endothelial Migration) (peptide)
peptide: Biotin-SVTEQGAELSNEER
Regarding B2, the Kd (in general, the concentration at which binding is half-saturated) in the assay with recombinant CDH15-Fc amounted to 109 µM.

These data come from article PMC4425550 (Nature medicine, 2015).
